Assay results reported in patent US20120190564A1, “IDENTIFICATION OF PROTEIN BINDING SITES” (priority 2000, published 2012).
Entries after “also recorded” stand apart in the source; their conditions may differ. Ends that are not written are not given here. code + = amino-terminal bromo-group; mmt = not defined here

Experiments:
Assay type in all cases: binding
Antibody-1 = assay: Pepscan ELISA on single or double hFSH peptide loops, Antibody-1; conditions: individual loop peptides coupled as a single loop
Text: (§1) FIG. 17: Result of Pepscan ELISA with two different antibodies on single or double peptide loops coupled to Pepscan minicards, as described above. Coupled to square-A: Loop peptide-1; Coupled to square-B: first Loop peptide-1 followed by Loop peptide-2; Coupled to square-C: Loop peptide-2; Coupled to square-D: first Loop peptide-2 followed by Loop peptide-1. Loop peptide-1: +KSYNRVTVMGGFKVEZ-conh2 (SEQ ID NO: 63); Loop peptide-2: +LQENPFFSQPGAPILZ-conh2 (SEQ ID NO: 64). The y-axis are optical density values (OD) obtained using a ccd-camera system. Both loop-peptides are derived from human Follicle-Stimulating Hormone (hFSH).
(§2) Two peptides that constitute two separate parts of a discontinuous epitope were coupled to the surface of a minicard as described above in the legend of FIG. 12 (cf. FIG. 3A and FIG. 4 (example-4)). A cys(mmt) was coupled alone or in combination with a cys(trt) (in a 1:1 ratio) and/or val(mmt) (the cys and val in a 1:1, 1:3, 1:9 etc. ratio). In this way one peptide was coupled (squares A and C) or two peptides with increasing valines in between the cysteines were coupled (squares B and D) (cf. FIG. 4B (example-4), FIG. 17). These four configurations were incubated with two different antibodies.

lysozyme-biotin = lysozyme-biotin (Gallus gallus, UniProt P00698); assay: Loop-loop Matrix-scan of CDR loop-peptide pairs with lysozyme-biotin; conditions: lysozyme-biotin 100 ug/ml, in triplo
Description: FIG. 16: Result of the loop-loop 15-mer Matrix-scan of loop-loop CDR-regions of antibodies with lysozyme-biotin (100 ug/ml, in triplo). Using 1 μg/ml lysozyme-biotin no binding is observed (not shown). Controls of only streptavidin-peroxidase in between the tests were negative (not shown). Peptides A, B, C, D, E and F: Peptide-A: +ARERDYRLDYZ (SEQ ID NO: 30) (HCDR3 of 1 fdl.pdb); Peptide-B: +ARGDGNYGYZ (SEQ ID NO: 31) (HCDR3 of 1mlb.pdb); Peptide-C: +LHGNYDFDGZ (SEQ ID NO: 32) (HCDR3 of 3hfl.pdb); Peptide-D: +ANWDGDYZ (SEQ ID NO: 33) (HCDR3 of 3hfm.pdb); Peptide-E: +ARRYGNSFDYZ (SEQ ID NO: 34) (HCDR3 of 1qfw.pdb); Peptide-F: +ARQGTAAQPYWYZ (SEQ ID NO: 35) (HCDR3 of 1qfw.pdb) (1fdl.pdb, 1mlb.pdb, 3hfl.pdb and 3hfm.pdb are antibodies that bind lysozyme; 1qfw.pdb are two antibodies that bind human choriogonadotrophin). All peptides have an amino terminal bromo-group (+) and a carboxyterminal lysine-mmt (Z).
Peptides 1 to 27: Peptide-1: +RASGNIHNYLAZ (SEQ ID NO: 36) (LCDR1 of 1fdl.pdb); Peptide-2: +RASQSISNNLHZ (SEQ ID NO: 37) (LCDR1 of 1mlb.pdb); Peptide-3: +SASSSVNYMYZ (SEQ ID NO: 38) (LCDR1 of 3hfl.pdb); Peptide-4: +RASQSIGNNLHZ (SEQ ID NO: 39) (LCDR1 of 3hfm.pdb); Peptide-5: +RASESVDSYGNSZ (SEQ ID NO: 40) (LCDR1 of 1qfw.pdb); Peptide-6: +ASESVDSYGNSFZ (SEQ ID NO: 41) (LCDR1 of 1qfw.pdb); […]: +SESVDSYGNSFMZ (SEQ ID NO: 42) (LCDR1 of 1qfw.pdb); Peptide-8: +ESVDSYGNSFMQZ (SEQ ID NO: 43) (LCDR1 of 1qfw.pdb); Peptide-9: +RASESVDSYGNSFZ (SEQ ID NO: 44) (LCDR1 of 1qfw.pdb); Peptide-10: +ASESVDSYGNSFMZ (SEQ ID NO: 45) (LCDR1 of 1qfw.pdb); Peptide-11: +SESVDSYGNSFMQZ (SEQ ID NO: 46) (LCDR1 of 1qfw.pdb); Peptide-12: +RASESVDSYGNSFMZ (SEQ ID NO: 47) (LCDR1 of 1qfw.pdb); Peptide-13: +ASESVDSYGNSFMQZ (SEQ ID NO: 48) (LCDR1 of 1qfw.pdb); Peptide-14: +RASESVDSYGNSFMQZ (SEQ ID NO: 49) (LCDR1 of 1qfw.pdb); Peptide-15: +KASETVDSFVSZ (SEQ ID NO: 50) (LCDR1 of 1qfw.pdb); Peptide-16: +LLVYYTTTLADGZ (SEQ ID NO: 51) (LCDR2 of 1fdl.pdb); Peptide-17: +LLIKYVSQSSSGZ (SEQ ID NO: 52) (LCDR2 of 1mlb.pdb); Peptide-18: +RWIYDTSKLASGZ (SEQ ID NO: 53) (LCDR2 of 3hfl.pdb); Peptide-19: +LLIKYASQSISGZ (SEQ ID NO: 54) (LCDR2 of 3hfm.pdb); Peptide-20: +LLIYRASNLESGZ (SEQ ID NO: 55) (LCDR2 of 1qfw.pdb); Peptide-21: LLIFGASNRESGZ (SEQ ID NO: 56) (LCDR2 of 1qfw.pdb); Peptide-22: +QHFWSTPRTZ (SEQ ID NO: 57) (LCDR3 of 1fdl.pdb); Peptide-23: +QQSNSWPRTZ (SEQ ID NO: 58) (LCDR3 of 1mlb.pdb); Peptide-24: +QQWGRNPTZ (SEQ ID NO: 59) (LCDR3 of 3hfl.pdb); Peptide-25: +QQSNSWPYTZ (SEQ ID NO: 60) (LCDR3 of 3hfm.pdb); Peptide-26: +QQSDEYPYMYTZ (SEQ ID NO: 61) (LCDR3 of 1qfw.pdb); Peptide-27: +GQTYNHPYTZ (SEQ ID NO: 62) (LCDR3 of 1qfw.pdb) (1 fdl.pdb, 1mlb.pdb, 3hfl.pdb and 3hfm.pdb are antibodies that bind lysozyme; 1 qfw.pdb are two antibodies that bind human choriogonadotrophin). All peptides have an amioterminal bromo-group (+) and a carboxyterminal lysine-mmt (Z).
From six different antibodies, the HCDR3-region (complementary determining region three of the antibody heavy chain) was synthesized as synthetic loop-peptides. As an example, four different anti-lysozyme antibodies and two different anti-choriogonadotrophin antibodies were selected: 1fdl.pdb (D1.3), 1mlb.pdb (D44.1), 3hfl.pdb (HyHel-5), 3hfm.pdb (HyHel-10) all anti-lysozyme, and 1qfw.pdb, two anti-human choriogonadotrophin, one anti-alpha and one anti-beta. The synthetic loop peptides were coupled to the minicards as described above. The three-dimensional coordinates (pdb-files) were extracted from the Protein Data Bank (PDB) at www.rcsb.org (RCSB, Research Collaboratory for Structural Bioinformatics) (Berman et al., 2000, The Protein Data Bank. Nucleic Acids Research, 28 pp. 235-242; Bernstein et al. 1977, The protein data bank: A computer-based archival file for macromolecular structures. J. Mol. Biol. 112:535-542). […]

monoclonal antibody 210 = assay: Standard linear Pepscan on all overlapping 12-mers of hTNF with mAb 210; conditions: all overlapping linear 12-mers covering hTNF
Description: FIG. 10: Standard linear Pepscan on all overlapping synthetic 12-mers covering the linear sequence of hTNF with monoclonal antibody 210 (R&D Systems, MAB210, clone 1825.12, through ITK Diagnostics Uithoorn, The Netherlands). A small peak with the sequence IKSPCQRETPEG (SEQ ID NO: 2) was identified. The y-axis are optical density values (OD) obtained using a ccd-camera system. Rampo, rabbit-anti-mouse peroxidase (DAKO).
The monoclonal antibody mAb-210 raised against hTNF was tested on linear and loop peptides (mAb-210 was bought from R&D Systems, MAB210, clone 1825.12, through ITK Diagnostics Uithoorn, The Netherlands). Firstly, it was tested in Pepscan on all overlapping linear 12-mers covering hTNF. […] Secondly, it was tested in Pepscan matrix-scan on double 15-mer loop-loop peptides (as described in FIGS. 3 and 4 and explained through FIGS. 11-12). Two loop-regions were labeled: peptide sequence GQGCPSTHVLLT (SEQ ID NO: 65) (squares 65 to 67) and SAIKSPCQRE (SEQ ID NO: 28) (squares 92 to 96) (FIGS. 13, 14). In addition in various squares loop peptide spots were identified corresponding to sequence GQGCPSTHVLLT (SEQ ID NO: 65) (spots 65-67); SAIKSPCQRE (SEQ ID NO: 28) (spots 92-96) and KGDRLSAEINR (SEQ ID NO: 29) (spots 126-129) (FIG. 14). […]

Antibody-2 = assay: Pepscan ELISA on single or double hFSH peptide loops, Antibody-2; conditions: individual loop peptides coupled as single loops
Text: as §1, §2

lysozyme-biotin, sequence (P00698 19-147): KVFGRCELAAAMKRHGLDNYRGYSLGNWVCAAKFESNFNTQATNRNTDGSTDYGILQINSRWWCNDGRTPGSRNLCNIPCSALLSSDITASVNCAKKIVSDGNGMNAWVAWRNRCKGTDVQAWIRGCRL

Substance | binding activity with lysozyme-biotin (lysozyme-biotin) | also measured
+LQENPFFSQPGAPILZ-conh2 ({code +}-LQENPFFSQPGAPILX-NH2; not fully specified; printed as +LQENPFFSQPGAPILZ-conh2) [loop peptide-2, loop-peptide derived from human Follicle-Stimulating Hormone (hFSH)] | – | recognition by Antibody-1 (Antibody-1): recognized
+LHGNYDFDGZ (SEQ ID NO: 32)+RASESVDSYGNSFMQZ (SEQ ID NO: 49): loop-loop peptide pair: loop of HCDR3 of 3hfl.pdb and loop of LCDR1 1qfw.pdb (chain 1 {code +}-LHGNYDFDGK(mmt); chain 2 {code +}-RASESVDSYGNSFMQK(mmt); not fully specified; reading uncertain) | highest binding activity | –
+LHGNYDFDGZ (SEQ ID NO: 32)+LLVYYTTTLADGZ (SEQ ID NO: 51): loop-loop peptide pair: loop of HCDR3 of 3hfl.pdb and loop of LCDR2 1fdl.pdb (chain 1 {code +}-LHGNYDFDGK(mmt); chain 2 {code +}-LLVYYTTTLADGK(mmt); not fully specified; reading uncertain) | highest binding activity | –
+LHGNYDFDGZ (SEQ ID NO: 32)+ASESVDSYGNSFMZ (SEQ ID NO: 45): loop-loop peptide pair: loop of HCDR3 of 3hfl.pdb and loop of LCDR1 1qfw.pdb (chain 1 {code +}-LHGNYDFDGK(mmt); chain 2 {code +}-ASESVDSYGNSFMK(mmt); not fully specified; reading uncertain) | highest binding activity | –
IKSPCQRETPEG | – | Pepscan binding of monoclonal antibody 210 (optical density) (monoclonal antibody 210): minor peak; also recorded: small peak
+LHGNYDFDGZ (SEQ ID NO: 32)+RASESVDSYGNSFZ (SEQ ID NO: 44): loop-loop peptide pair: loop of HCDR3 of 3hfl.pdb and loop of LCDR1 1qfw.pdb (chain 1 {code +}-LHGNYDFDGK(mmt); chain 2 {code +}-RASESVDSYGNSFK(mmt); not fully specified; reading uncertain) | highest binding activity | –
+LHGNYDFDGZ (SEQ ID NO: 32)+ASESVDSYGNSFZ (SEQ ID NO: 41): loop-loop peptide pair: loop of HCDR3 of 3hfl.pdb and loop of LCDR1 1qfw.pdb (chain 1 {code +}-LHGNYDFDGK(mmt); chain 2 {code +}-ASESVDSYGNSFK(mmt); not fully specified; reading uncertain) | highest binding activity | –
+KSYNRVTVMGGFKVEZ-conh2 ({code +}-KSYNRVTVMGGFKVEX-NH2; not fully specified; printed as +KSYNRVTVMGGFKVEZ-conh2) [loop peptide-1, loop-peptide derived from human Follicle-Stimulating Hormone (hFSH)] | – | recognition by Antibody-2 (Antibody-2): recognized
+LHGNYDFDGZ (SEQ ID NO: 32)+SESVDSYGNSFMQZ (SEQ ID NO: 46): loop-loop peptide pair: loop of HCDR3 of 3hfl.pdb with loop of LCDR1 of 1qfw.pdb (chain 1 {code +}-LHGNYDFDGK(mmt); chain 2 {code +}-SESVDSYGNSFMQK(mmt); not fully specified; reading uncertain) | highest binding activity | –
